Results: patent US20100015650

Target: T1, BRB1 tyrosine kinase substrate peptide
T1 chain: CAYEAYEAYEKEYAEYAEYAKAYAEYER

B1: EphA5 (protein)
chain: SGSCCECGCGRASSLCAVAHPSLIWRCGYSKAKQDPEEEKMHFHNGHIKLPGVRTYIDPHTYEDPNQAVHEFAKEIEASCITIERVIGAGEFGEVCSGRLKLPGKRELPVAIKTLKVGYTEKQRRDFLGEASIMGQFDHPNIIHLEGVVTKSKPVMIVTEYMENGSLDTFLKKNDGQFTVIQLVGMLRGISAGMKYLSDMGYVHRDLAARNILINSNLVCKVSDFGLSRVLEDDPEAAYTTRGGKIPIRWTAPEAIAFRKFTSASDVWSYGIVMWEVVSYGERPYWEMTNQDVIKAVEEGYRLPSPMDCPAALYQLMLDCWQKERNSRPKFDEIVNMLDKLIRNPSSLKTLVNASCRVSNLLAEHSPLGSGAYRSVGEWLEAIKMGRYTEIFMENGYSSMDAVAQVTLEDLRRLGVTLVGHQKKIMNSLQEMKVQLVNGMVPL
  Signal to Noise Ratio with BRB1 Peptide (TR-FRET kinase assay; kinase 1 nM): 35.5

B2: ARG (protein)
chain: GQQVGRVGEAPGLQQPQPRGIRGSSAARPSGRRRDPAGRTTETGFNIFTQHDHFASCVEDGFEGDKTGGSSPEALHRPYGCDVEPQALNEAIRWSSKENLLGATESDPNLFVALYDFVASGDNTLSITKGEKLRVLGYNQNGEWSEVRSKNGQGWVPSNYITPVNSLEKHSWYHGPVSRSAAEYLLSSLINGSFLVRESESSPGQLSISLRYEGRVYHYRINTTADGKVYVTAESRFSTLAELVHHHSTVADGLVTTLHYPAPKCNKPTVYGVSPIHDKWEMERTDITMKHKLGGGQYGEVYVGVWKKYSLTVAVKTLKEDTMEVEEFLKEAAVMKEIKHPNLVQLLGVCTLEPPFYIVTEYMPYGNLLDYLRECNREEVTAVVLLYMATQISSAMEYLEKKNFIHRDLAARNCLVGENHVVKVADFGLSRLMTGDTYTAHAGAKFPIKWTAPESLAYNTFSIKSDVWAFGVLLWEIATYGMSPYPGIDLSQVYDLLEKGYRMEQPEGCPPKVYELMRACWKWSPADRPSFAETHQAFETMFHDSSISEEVAEELGRAASSSSVVPYLPRLPILPSKTRTLKKQVENKENIEGAQDATENSASSLAPGFIRGAQASSGSPALPRKQRDKSPSSLLEDAKETCFTRDRKGGFFSSFMKKRNAPTPPKRSSSFREMENQPHKKYELTGNFSSVASLQHADGFSFTPAQQEANLVPPKCYGGSFAQRNLCNDDGGGGGGSGTAGGGWSGITGFFTPRLIKKTLGLRAGKPTASDDTSKPFPRSNSTSSMSSGLPEQDRMAMTLPRNCQRSKLQLERTVSTSSQPEENVDRANDMLPKKSEESAAPSRERPKAKLLPRGATALPLRTPSGDLAITEKDPPGVGVAGVAAAPKGKEKNGGARLGMAGVPEDGEQPGWPSPAKAAPVLPTTHNHKVPVLISPTLKHTPADVQLIGTDSQGNKFKLLSEHQVTSSGDKDRPRRVKPKCAPPPPPVMRLLQHPSICSDPTEEPTALTAGQSTSETQEGGKKAALGAVPISGKAGRPVMPPPQVPLPTSSISPAKMANGTAGTKVALRKTKQAAEKISADKISKEALLECADLLSSALTEPVPNSQLVDTGHQLLDYCSGYVDCIPQTRNKFAFREAVSKLELSLQELQVSSAAAGVPGTNPVLNNLLSCVQEISDVVQR
  Signal to Noise ratio with BRB1 Peptide (TR-FRET kinase assay; kinase 0.5 nM): 10.6

B3: EphB3 (protein)
chain: CLRKQRHGSDSEYTEKLQQYIAPGMKVYIDPFTYEDPNEAVREFAKEIDVSCVKIEEVIGAGEFGEVCRGRLKQPGRREVFVAIKTLKVGYTERQRRDFLSEASIMGQFDHPNIIRLEGVVTKSRPVMILTEFMENCALDSFLRLNDGQFTVIQLVGMLRGIAAGMKYLSEMNYVHRDLAARNILVNSNLVCKVSDFGLSRFLEDDPSDPTYTSSLGGKIPIRWTAPEAIAYRKFTSASDVWSYGIVMWEVMSYGERPYWDMSNQDVINAVEQDYRLPPPMDCPTALHQLMLDCWVRDRNLRPKFSQIVNTLDKLIRNAASLKVIASAQSGMSQPLLDRTVPDYTTFTTVGDWLDAIKMGRYKESFVSAGFASFDLVAQMTAEDLLRIGVTLAGHQKKILSSIQDMRLQMNQTLPVQV
  Signal to Noise ratio with BRB1 Peptide (TR-FRET kinase assay; kinase 0.1 nM): 24.7

B4: EphB1 (protein)
chain: SRKRAYSKEAVYSDKLQHYSTGRGSPGMKIYIDPFTYEDPNEAVREFAKEIDVSFVKIEEVIGAGEFGEVYKGRLKLPGKREIYVAIKTLKAGYSEKQRRDFLSEASIMGQFDHPNIIRLEGVVTKSRPVMIITEFMENGALDSFLRQNDGQFTVIQLVGMLRGIAAGMKYLAEMNYVHRDLAARNILVNSNLVCKVSDFGLSRYLQDDTSDPTYTSSLGGKIPVRWTAPEAIAYRKFTSASDVWSYGIVMWEVMSFGERPYWDMSNQDVINAIEQDYRLPPPMDCPAALHQLMLDCWQKDRNSRPRFAEIVNTLDKMIRNPASLKTVATITAVPSQPLLDRSIPDFTAFTTVDDWLSAIKMVQYRDSFLTAGFTSLQLVTQMTSEDLLRIGITLAGHQKKILNSIHSMRVQISQSPTAMA
  Signal to Noise ratio with BRB1 Peptide (TR-FRET kinase assay; kinase 0.5 nM): 29.9

B5: EphB2 (protein)
chain: CNRRGFERADSEYTDKLQHYTSGHMTPGMKIYIDPFTYEDPNEAVREFAKEIDISCVKIEQVIGAGEFGEVCSGHLKLPGKREIFVAIKTLKSGYTEKQRRDFLSEASIMGQFDHPNVIHLEGVVTKSTPVMIITEFMENGSLDSFLRQNDGQFTVIQLVGMLRGIAAGMKYLADMNYVHRDLAARNILVNSNLVCKVSDFGLSRFLEDDTSDPTYTSALGGKIPIRWTAPEAIQYRKFTSASDVWSYGIVMWEVMSYGERPYWDMTNQDVINAIEQDYRLPPPMDCPSALHQLMLDCWQKDRNHRPKFGQIVNTLDKMIRNPNSLKAMAPLSSGINLPLLDRTIPDYTSFNTVDEWLEAIKMGQYKESFANAGFTSFDVVSQMMMEDILRVGVTLAGHQKKILNSIQVMRAQMNQIQSVEG
  Signal to Noise ratio with BRB1 Peptide (TR-FRET kinase assay; kinase 0.25 nM): 28.8

B6: EphA8 (protein)
chain: KKRHCGYSKAFQDSDEEKMHYQNGQAPPPVFLPLHHPPGKLPEPQFYAEPHTYEEPGRAGRSFTREIEASRIHIEKIIGSGDSGEVCYGRLRVPGQRDVPVAIKALKAGYTERQRRDFLSEASIMGQFDHPNIIRLEGVVTRGRLAMIVTEYMENGSLDTFLRTHDGQFTIMQLVGMLRGVGAGMRYLSDLGYVHRDLAARNVLVDSNLVCKVSDFGLSRVLEDDPDAAYTTTGGKIPIRWTAPEAIAFRTFSSASDVWSFGVVMWEVLAYGERPYWNMTNRDVISSVEEGYRLPAPMGCPHALHQLMLDCWHKDRAQRPRFSQIVSVLDALIRSPESLRATATVSRCPPPAFVRSCFDLRGGSGGGGGLTVGDWLDSIRMGRYRDHFAAGGYSSLGMVLRMNAQDVRALGITLMGHQKKILGSIQTMRAQLTSTQGPRRHL
  Signal to Noise ratio with BRB1 Peptide (TR-FRET kinase assay; kinase 0.25 nM): 32.3

B7: EphA6 (protein)
chain: TGRCQWYIKAKMKSEEKRRNHLQNGHLRFPGIKTYIDPDTYEDPSLAVHEFAKEIDPSRIRIERVIGAGEFGEVCSGRLKTPGKREIPVAIKTLKGGHMDRQRRDFLREASIMGQFDHPNIIRLEGVVTKRSFPAIGVEAFCPSFLRAGFLNSIQAPHPVPGGGSLPPRIPAGRPVMIVVEYMENGSLDSFLRKHDGHFTVIQLVGMLRGIASGMKYLSDMGYVHRDLAARNILVNSNLVCKVSDFGLSRVLEDDPEAAYTTTGGKIPIRWTAPEAIAYRKFSSASDAWSYGIVMWEVMSYGERPYWEMSNQDVILSIEEGYRLPAPMGCPASLHQLMLHCWQKERNHRPKFTDIVSFLDKLIRNPSALHTLVEDILVMPESPGEVPEYPLFVTVGDWLDSIKMGQYKNNFVAAGFTTFDLISRMSIDDIRRIGVILIGHQRRIVSSIQTLRLHMMHIQEKGFHV
  Signal to Noise ratio with BRB1 Peptide (TR-FRET kinase assay; kinase 0.5 nM): 5.4
